{"source": "paper PMC2441799", "about": "(Nucleic Acids Research, 2008)", "target": "full-length JDP2 protein fused to the yeast GAL4 DNA-binding domain (GAL4-DBD-JDP2) (rat, UniProt Q78E65 1-163)", "sequence (Q78E65 whole entry, the tested form may be a part)": "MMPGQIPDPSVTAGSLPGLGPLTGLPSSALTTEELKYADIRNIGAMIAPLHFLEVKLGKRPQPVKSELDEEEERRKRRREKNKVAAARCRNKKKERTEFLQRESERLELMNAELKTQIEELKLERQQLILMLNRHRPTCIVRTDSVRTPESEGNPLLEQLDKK", "test": "two-hybrid", "data": [{"binder": "wild-type CHOP10 (expression plasmid, in NIH3T3 cells) (natural protein) MAAESLPFSFGTLSSWELEAWYEDLQEVLSSDENGGTYVSPPGNEEEESKIFTTLDPASLAWLTEEEPEPAEVTSTSQSPHSPDSSQSSLAQEEEEEDQGRTRKRKQSGHSPARAGKQRMKEKEQENERKVAQLAEENERLKQEIERLTREVEATRRALIDRMVNLHQA", "values": [{"measurement": "fold potentiation of the 5 × UAS luciferase reporter (two-hybrid)", "value": 25, "unit": "fold"}]}]}
